Experimental findings from patent US9266940 (Novo Nordisk, dated 2016) are described below.

Numbered stars: 1 amine (or outer) side, 2 acyl side, 3 side chain; on linkers, the order of the positions; unused ones are H or OH. Square brackets hold non-standard residues; d marks the D form. Side chains are listed from the residue outwards. Ends that are not written are not given here. * marks the point of attachment. Dodecanoyl(12-OPh(4-COOH)) = O=C(O)c1ccc(OCCCCCCCCCCCC(=O)*)cc1; Decanoyl(10-(4-HOOC-PhO)) = O=C(O)c1ccc(OCCCCCCCCCC(=O)*)cc1; γGlu = O=C(O)[C@H](CCC(=O)[*:2])N[*:1]; C14 diacid = O=C(O)CCCCCCCCCCCCC(=O)*; AEEA = NCCOCCOCC(=O)O; Aib = CC(C)(N)C(=O)O

For experiment [1], the target named is T1, human GLP-1 receptor (human, UniProt P43220 24-463).
T1 construct: whole, on cells; Used as purified plasma membranes of the stably transfected BHK cell line, not as intact cells; also called hGLP-1
The experiment in a line: SPA displacement assay; IC50 at 2.0% HSA over IC50 at 0.001% HSA. The procedure:
(§1) A shift in the binding affinity, $IC50$, is an indication that the peptide in question binds to albumin, and thereby a prediction of a potential protracted pharmacokinetic profile of the peptide in question in animal models.
(§2) 50 ul (micro liter) HSA ("high albumin" experiment containing 2% HSA), or buffer ("low albumin" experiment containing 0.001% HSA), was added to Optiplate, and 25 ul of test compounds were added. 5-10 ug membrane protein/sample was added (50 ul) corresponding to 0.1-0.2 mg protein/ml (to be preferably optimised for each membrane preparation). SPA-particles (Wheatgerm agglutinin SPA beads, Perkin Elmer, #RPNQ0001) were added in an amount of 0.5 mg/well (50 ul). […] The plates were sealed with PlateSealer and incubated for 120 minutes at 30° C. while shaking. The plates were centrifuged (1500 rpm, 10 min) and counted in Topcounter.

The target of experiment [2] is T1, human GLP-1 receptor. The experiment in a line: SPA, displacement of 125I-GLP-1(7-36)NH2 from hGLP-1R BHK membranes, high HSA (2.0%). The procedure: as §1, §2
(In general: In a radioligand displacement assay an active substance lowers the binding of a labelled ligand.)

The target of experiment [3] is T1, human GLP-1 receptor. Briefly: SPA, displacement of 125I-GLP-1(7-36)NH2 from hGLP-1R BHK membranes, low HSA (0.001%). The procedure:
as §1, §2

The target in experiment [4] is T1, human GLP-1 receptor. Briefly: cell-based or functional assay.

For H[Aib]EGTFTSDVSSYLEEQAARK([AEEA-AEEA-γGlu-Decanoyl(10-(4-HOOC-PhO))])FIEWLVRGK([AEEA-AEEA-γGlu-Decanoyl(10-(4-HOOC-PhO))])GEG (also called 31), the “Ratio [(IC50/nM) high HSA]/[(IC50/nM) low HSA]” value (shortened to “Ratio”) in experiment [1] came out at 629. Also, the IC50 (commonly the concentration at which inhibition is half-maximal) in experiment [2] was 220 nM; in experiment [3] it was 0.35 nM. In addition, the “EC50/pM (in vitro potency, cAMP formation, AlphaScreen)” value (“EC50/pM” for short) in experiment [4] was 37 pM.
HAEGTFTSDVSSYLEEQAARK([AEEA-AEEA-γGlu-Dodecanoyl(12-OPh(4-COOH))])FIEWLVRGK([AEEA-AEEA-γGlu-Dodecanoyl(12-OPh(4-COOH))])GEG (also called 32): in experiment [1], the “Ratio” value is 2050. Also, the IC50 in experiment [2] was 369 nM; in experiment [3], 0.18 nM. In addition, the “EC50/pM” value in experiment [4] worked out at 76 pM.
For H[Aib]EGTK([AEEA-AEEA-γGlu-C14 diacid])TSDVSSYLEEQAARK([AEEA-AEEA-γGlu-C14 diacid])FIAHLVQGRG (also called 18) the same measures were 2.1, 789 nM, 373 nM and 3020 pM.
Consider H[Aib]EGTFTSDVSSYK([AEEA-AEEA-γGlu-Decanoyl(10-(4-HOOC-PhO))])EEQAARK([AEEA-AEEA-γGlu-Decanoyl(10-(4-HOOC-PhO))])FIEWLVG, for which the “Ratio” value in experiment [1] stood at 79. The IC50 in experiment [2] is 446 nM; in experiment [3], 5.68 nM. Moreover, the “EC50/pM” value in experiment [4] was determined as 468 pM.
Taken in the same sequence, the figures for H[Aib]EGTFTSDVSSYLEK([AEEA-AEEA-γGlu-C14 diacid])QAARK([AEEA-AEEA-γGlu-C14 diacid])FIAHLVG (also called 19) were 60, 143 nM, 2.38 nM and 52 pM.
In the case of H[Aib]EGTFTSDVSSYLEK([AEEA-AEEA-γGlu-C14 diacid])QAVRK([AEEA-AEEA-γGlu-C14 diacid])FIAWLVR, the “Ratio” value in experiment [1] is 57. Further, the IC50 in experiment [2] is 80 nM; in experiment [3] it was 1.41 nM. The “EC50/pM” value in experiment [4] came to 159 pM.
As for HAEGTFTSDVSSYLEEQK([AEEA-AEEA-γGlu-Decanoyl(10-(4-HOOC-PhO))])ARK([AEEA-AEEA-γGlu-Decanoyl(10-(4-HOOC-PhO))])FIAHLVG (also called 25), in experiment [1], the “Ratio” value came out at 3.5. Moreover, the values for the IC50 in experiment [2] and in experiment [3] were 39 nM and 10.9 nM, respectively. The “EC50/pM” value in experiment [4] stood at 380 pM.
For H[Aib]EGTFTSDVSSYLEK([AEEA-AEEA-γGlu-C14 diacid])QAVRK([AEEA-AEEA-γGlu-C14 diacid])FIAWLVRG, the “Ratio” value in experiment [1] was 157. The IC50 stood at 60 nM in experiment [2] and 0.38 nM in experiment [3]. Also, in experiment [4], the “EC50/pM” value worked out at 242 pM.
For HAEGTFTSDVSSYLEEQAARK([AEEA-AEEA-γGlu-Decanoyl(10-(4-HOOC-PhO))])FIAWLVRGK([AEEA-AEEA-γGlu-Decanoyl(10-(4-HOOC-PhO))]) (ends and bridges not checked) the same measures were 101, 29 nM, 0.29 nM and 62 pM.
On to HAEGTFTSDVSSYLEEQAARK([AEEA-AEEA-γGlu-Decanoyl(10-(4-HOOC-PhO))])FIEWLVRGK([AEEA-AEEA-γGlu-Decanoyl(10-(4-HOOC-PhO))])GEG, for which, in experiment [1], the “Ratio” value is 821. Further, the IC50 in experiment [2] amounted to 320 nM; in experiment [3] it was 0.39 nM. Further, in experiment [4], the “EC50/pM” value was determined as 43 pM.
For H[Aib]EGTFTSDVSSYLEGQAVRK([AEEA-AEEA-γGlu-C14 diacid])FIAHLVQGRK([AEEA-AEEA-γGlu-C14 diacid]) (also called 15) the same measures were 155, 29 nM, 0.19 nM and 5 pM.
